The values below come from patent US10113152B1, “Variant polypeptides capable of aminating aliphatic alpha keto acids” (AbbVie Inc., priority 2014, dated 2018).

Residue numbers refer to the chain shown, from its start. In names and notes the source's numbering stands.

Sequences and labels used below:
B1: wild-type B. cereus LDH: wild-type B. cereus leucine dehydrogenase, amino acid sequence SEQ ID NO:1 (UniProt P0A392), cell-free extract from E. coli (protein, listed as Bacillus cereus)
chain: MTLEIFEYLEKYDYEQVVFCQDKESGLKAIIAIHDTTLGPALGGTRMWTYDSEEAAIEDALRLAKGMTYKNAAAGLNLGGAKTVIIGDPRKDKSEAMFRALGRYIQGLNGRYITAEDVGTTVDDMDIIHEETDFVTGISPSFGSSGNPSPVTAYGVYRGMKAAAKEAFGTDNLEGKVIAVQGVGNVAYHLCKHLHAEGAKLIVTDINKEAVQRAVEEFGASAVEPNEIYGVECDIYAPCALGATVNDETIPQLKAKVIAGSANNQLKEDRHGDIIHEMGIVYAPDYVINAGGVINVADELYGYNRERALKRVESIYDTIAKVIEISKRDGIATYVAADRLAEERIASLKNSRSTYLRNGHDIISRR
B2: L42V: variant B. cereus leucine dehydrogenase, leucine at position 42 substituted by valine, SEQ ID NO:5 (protein)
chain: B1 chain with L42V
B3: L42G: variant B. cereus leucine dehydrogenase, leucine at position 42 substituted by glycine, SEQ ID NO:6 (protein)
chain: B1 chain with L42G
B4: L42I: variant B. cereus leucine dehydrogenase, leucine at position 42 substituted by isoleucine, SEQ ID NO:4 (protein)
chain: B1 chain with L42I
B5: L42D: variant B. cereus leucine dehydrogenase (SEQ ID NO:1) with aspartic acid at position 42 (protein, listed as Bacillus cereus)
chain: B1 chain with L42D
B6: L42Y: variant B. cereus leucine dehydrogenase (SEQ ID NO:1) with tyrosine at position 42 (protein, listed as Bacillus cereus)
chain: B1 chain with L42Y
B7: L42K: variant B. cereus leucine dehydrogenase (SEQ ID NO:1) with lysine at position 42 (protein, listed as Bacillus cereus)
chain: B1 chain with L42K
B8: L42A: variant B. cereus leucine dehydrogenase, leucine at position 42 substituted by alanine, SEQ ID NO:20 (protein)
chain: B1 chain with L42A
B9: L42S: variant B. cereus leucine dehydrogenase (SEQ ID NO:1) with serine at position 42 (protein, listed as Bacillus cereus)
chain: B1 chain with L42S
B10: L42T: variant B. cereus leucine dehydrogenase (SEQ ID NO:1) with threonine at position 42 (protein, listed as Bacillus cereus)
chain: B1 chain with L42T
B11: L42H: variant B. cereus leucine dehydrogenase (SEQ ID NO:1) with histidine at position 42 (protein, listed as Bacillus cereus)
chain: B1 chain with L42H

The first data set can be described thus: Reductive amination of 2-oxonon-8-enoic acid to (S)-LCAA by leucine dehydrogenase (NADH consumption at 340 nm, HPLC of aliquots). It is filed as biochemical. To be noted: by four hours; 10 mM 2-oxonon-8-enoic acid, 2 M NH4Cl/OH, pH 9.5, 30° C., GDH/glucose NADH regeneration; FIG. 3. As for the experimental part: (§1) To produce (S)-LCAA from 2-oxonon-8-enoic acid, a reaction was performed under the following conditions. In 200 mL total volume and a buffered pH of 9.5, the aqueous reaction mixture contained 10 mM 2-oxonon-8-enoic acid, 12 mM glucose, 1 mM NAD^+, 50 mg of purified glucose dehydrogenase (GDH-105; Codexis, Redwood City, Calif.), 2 M NH4Cl/OH, and approximately 60 mL/L of purified leucine dehydrogenase cell-free extract. FIG. 2 depicts the reaction scheme for converting 2-oxonon-8-enoic acid to (S)-LCAA using leucine dehydrogenase. The mixture was incubated at 30° C. and with shaking at 150 rpm for four hours.
Enzyme activity was measured spectrophotometrically by monitoring the consumption of NADH in the reductive amination at 340 nm. Activity was defined as the number of micromoles of NADH consumed in 1 minute (μmol min^−1). Aliquots of the reaction mixture were obtained periodically during the course of the reaction and subjected to analysis by high performance liquid chromatography (HPLC).
To increase the affinity of LDH for the 2-oxonon-8-enoic acid substrate and, thus, enhance the enzyme's activity for producing (S)-LCAA, amino acid substitutions were made within the region of LDH that binds to the substrate. Specifically, amino acid substitutions were introduced at position 42 of B. cereus leucine dehydrogenase (SEQ ID NO:1) using standard mutagenesis techniques. Wild-type B. cereus LDH, along with 19 variants (one for each amino acid substitution at position 42) were expressed and isolated as described in Example 1. The enzymatic activity of the variant proteins was evaluated alongside wild-type B. cereus LDH in the reaction described in Example 1. […] While the disclosure is not bound by any particular theory or mechanism of action, the substitutions that increased the enzymatic activity of the LDH enzyme are believed to have increased the depth of the substrate binding pocket in LDH and thereby increased the affinity of LDH for the 2-oxonon-8-enoic acid substrate.
For B1, the “conversion of the substrate to LCAA” value is “greater than 99.5%”.

The same data set, now with this note: reaction described in Example 1; conversion of 2-oxonon-8-enoic acid to (S)-LCAA.
As for B2, the “increase in reaction rate relative to wild-type B. cereus LDH” value was “approximately 1×10^3”.

Regarding B3, the “increase in reaction rate relative to wild-type B. cereus LDH” value is listed as “approximately 1×10^3”.

The data set is the same for the next values; noted with them: reaction described in Example 1; conversion of 2-oxonon-8-enoic acid to (S)-LCAA; FIG. 5.
With B4, the “enzymatic activity (reaction rate) relative to wild-type B. cereus LDH” value is given as “significantly enhanced activity”.

Turning to B2, the “enzymatic activity (reaction rate) relative to wild-type B. cereus LDH” value is recorded as “significantly enhanced activity”.

With B5, the “enzymatic activity (reaction rate) relative to wild-type B. cereus LDH” value is “reduced activity”.

B6: the “enzymatic activity (reaction rate) relative to wild-type B. cereus LDH” value is reported as “reduced activity”.

In the case of B7, the “enzymatic activity (reaction rate) relative to wild-type B. cereus LDH” value is reported as “reduced activity”.

For B8, the “enzymatic activity (reaction rate) relative to wild-type B. cereus LDH” value was “enhanced activity”.

B9: the “enzymatic activity (reaction rate) relative to wild-type B. cereus LDH” value is “enhanced activity”.

Regarding B3, the “enzymatic activity (reaction rate) relative to wild-type B. cereus LDH” value is reported as “significantly enhanced activity”.

B10: the “enzymatic activity (reaction rate) relative to wild-type B. cereus LDH” value is reported as “enhanced activity”.

Consider B11, for which the “enzymatic activity (reaction rate) relative to wild-type B. cereus LDH” value is reported as “reduced activity”.

The nature of another data set: HPLC analysis of the percentage of (S)-enantiomer in the LCAA reaction product. It is filed as biochemical. The note with it: LCAA product of the Example 1 reaction, FIG. 4. The method, then:
as §1
To determine what percentage of the LCAA reaction product of the reaction was (S)-LCAA, aliquots of the reaction mixture were analyzed using high performance liquid chromatography (HPLC).
Consider B1, for which the “percentage of the reaction product that was the (S)-enantiomer” value is “greater than 99.5%”.
